Results on 16 sequences are retold here after the nanobody polyreactivity screen of Harvey et al. (2022).

A short description of this data set: yeast display, Sf9 membrane polyspecificity reagent, FACS + sequencing; frameworks hold sequencing errors. In short, it runs like this:
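Using colony PCR, genes from sorted yeast display clones were amplified, then sequenced on MiSeq at 2 × 250 and filtered by CDR length. The clones had been stained with 10% biotinylated, detergent-solubilized Sf9 membrane reagent for 1 hour at 4 °C and sorted by FACS into low and high (top ~1%) gates on anti-HA and streptavidin fluorescence. Polyreactivity labels come from the gate of origin.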
As for “QVQLVESGGGLVQAVGSLRLSCAASGRTLSRNAKGWYRQAPGKEREFVAAISSRGTSTYYADSVKGRFTISRDNAKNSVYLQMNSLKPEDTAVYYCATTLGGNYGYDYWGQGTQVTVSS”, the “polyreactivity (PSR sort gate)” value is reported as “high polyreactivity”.

For “QVQLVESGGGLVQAGGSLRLSCAASGRIFYKYAMGWYRQAPGKERELVAAISYSGGSTYYADSMKGRFTLSRDNAKNTVYLQMNSLTPEDTAVYYCATRRREAGIEYDYWGQGTQVTVSS”, the “polyreactivity (PSR sort gate)” value is “high polyreactivity”. The entry for “QVQLVESGGGLVQAGGSLRLSCAASGSTFGSYVMGWYRQAPGKERELVAAIRWSGTSTYYADSVKGRFTISRDNAKNTVYLQLNSLKPEDTAVYYCNATPNYNRGDHTPMDYWGQGTQVTVSS” is “low polyreactivity”. Take “QVQIVESGGRLVQAGCSLRLSCAASGRIFTRYAMGWYRQAPGKERELVASIRHSGGSTYYADSVKGRFTISRDNAKNTVYLQMNSLKPEDTAVYYCAARGKKGTRYNYNYWGHGTQVTVSS”: the “polyreactivity (PSR sort gate)” value is recorded as “high polyreactivity”. In the case of “QVQLVESGGGLVQAGGSLLLSCAASGSIFDFYGMGWDRQAPGKERELVATITGTGGGTYYADSVKGRFTISRDNAKNTVYLKMNSLKPEDTAVYYCAADYPYGYWRGLFYYWGQGTQVTVSS” it was “low polyreactivity”.

As to “QVQLVESGGGLVQAGGSLRLSCAASGLIFYWYTMGWYRQAPGKEREFVAAITWGGGGTYYADSVKGRFTISRDKAKNTVYLQMNSLKPEDTAVYYCAAEEQVVKAHGDYWGQGTQVTVSS”, the “polyreactivity (PSR sort gate)” value is given as “low polyreactivity”. The entry for “QDQLVESGGGLFQAGGSLRLSCGASGFIFRWNAMGWSRQAPGKEREMVAAITRGGSTYYADSVKGRFSISRDNAKNTVYLQMNSLKPEDTAVYFCAAGYVYRGASGGYWGQGTQVTVSS” is “high polyreactivity”; for “QVQHVESGGGLVQAGGSLRLSCAASGSTYTVYAMGRDRQAPGKERELVAAISGSGGRTYYADSVKGRFTISRDNAKNTVYLQMNILKPEDTGVYYCASQGNYWGQGTQVTVSS” it is “high polyreactivity”; for “QVQLVESGGGLVQAGGSLRLSCAASGLIFGNYAMGWYRQAPGKERELVAAITSTGITYYADSVKGRFTISRDNAKNTVYLQMNSLKPEDTAVYYCNADYYRHSLDYDYVGYDYWGQGTQVTVSS” it is “low polyreactivity”. The entry for “QVQLVESGGGLVQAGGSLRLSCAASGGTFDINDMGWYRQAPGKEREFVAAIDWSGGNTYYADSVKGRFIISRDNAKNTVYLQMNSLKPEDTAVYYCNARRKRSYDYWGQGTQVTVSS” is “low polyreactivity”; for “QVQLVDSGGGLVQAGGSLRLSCAASGNTFIYYAMGWYRQAPGKERELVAAITWSGGSTYYADSVKGRFTISRDNAKNTVYLQMNSLKPEDTAVYYCAKFTHNYYYWGQGTQVTVSS” it is “high polyreactivity”. The entry for “QVQLVESGGGLVHAGGSLRLSCAASGRIFTPYAMGWYRQAPGKERELVAAISGRGGSTYYADSVKGRFTISRDNAKNTVYLQMNSLKPEDTAVYYCAATYFYVYDYWLDYWGQGTQVTVSS” is “high polyreactivity”. Consider “QVELVESGGGLVQAGGSLRLICAASGFTYTWNAMGWYRQAPGKERELVAGITRGGSTNYADSVKGRFTISRDNAKNTVYLQINSLKPEDTAVYYCNVSFYFHHAGYDFWGQGTQVTVSS”, for which the “polyreactivity (PSR sort gate)” value was “low polyreactivity”.

For the sequence “QVQLVESGGGLVQAGGSLRLSCAASGSTFNSNAMGWYRQAPGKERELVASITWTDVSTYYADSVKGRFTISRDNAKNTVYLQMNSLKPEDTAVYYCAAVTGLSSNDGYDYWGQGTQVTVSS”, the “polyreactivity (PSR sort gate)” value is on record as “low polyreactivity”. In the case of “QVQLVESGGGLVQAGGSLRLICDASGRTFTDNAMGLYRQAPGKERELVAAISSSGDFYAESVKGRFTISRDNAQNTVYLQMNSLKPEDTAVYYCAARVWRYYYQSRFYYWGQGTQVTVSS” it was “high polyreactivity”; in that of “QVQLVESGGGLVQAGGSLRLSCAASGRTFDVYAMGWYRPAPGKERELVAAITSGGSTYYADSVKGRYTISRDNAKNTVFLLINSLKPEDTAVYYCATDVDKSLYDYWGQGTQVTVSS”, “low polyreactivity”.
